Laboratory results published in the supplement of paper PMC12764529.
± gives the half width of the 95% confidence interval.

Key:
[1] = folding stability dG unfold from chymotrypsin proteolysis; higher = more stable
Procedure, shortened: (§1)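 K50 was inferred by Bayesian fitting of sequencing counts obtained after protease digestion of designed mini-proteins. Unfolding free energy was derived by comparison with a sequence-predicted unfolded-state K50 and a shared folded-state K50, for each protease or both combined. The mini-proteins were under 80 residues, had no cysteine, were carried in a PA-tagged cDNA display construct, and were kept only if AlphaFold2 dimer inter-PAE exceeded 15.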

[2] = folding stability dG unfold (combined trypsin and chymotrypsin); higher = more stable
Procedure, shortened: as §1

[3] = folding stability dG unfold from trypsin proteolysis; higher = more stable
Procedure, shortened: as §1

Sequence | folding stability dG unfold [1] | folding stability dG unfold [2] | folding stability dG unfold [3]
SAGGSAGGSAGGNIEIFYFPDGYVVITIWDPDEGWRIVITAKIDPGDGKIKEMDIMPVPSAGGSAGGSAGGS [r10_613_TrROS] | 2.91 ± 0.13 kcal/mol | 2.85 ± 0.19 kcal/mol | 2.67 ± 0.18 kcal/mol
SAGGSAGGSAGGNKVTIPIHIPPGDPGNPEKAIEWAEHIAKELQEKNGGKDVDINIMPSPSAGGSAGGSAGG [r7_440_TrROS] | -0.595 ± 0.079 kcal/mol | 0.174 ± 0.33 kcal/mol | 0.772 ± 0.1 kcal/mol
SAGGSAGGSAGGNPLKGNFFRLKLELTLKVEVKIPKKGEKKTFPIKIELELDVPPDSILSAGGSAGGSAGGS [r10_133_TrMRF] | 3.98 ± 0.12 kcal/mol | 3.69 ± 0.11 kcal/mol | 3.39 ± 0.26 kcal/mol
SAGGSAGGSAGGNVIRVEKEPNTVVLYFPDGTYRVVEVEKKDESVKVLSEKVEPIVPGLLSAGGSAGGSAGG [r7_443_JUSTAS] | -0.177 ± 0.2 kcal/mol | 0.702 ± 0.059 kcal/mol | 1.12 ± 0.024 kcal/mol
SAGGSAGGSAGGNWYIIIYFPPGRKRIIPFDSPEEMREEMKENGMPIKIMPKEDAEKLLSAGGSAGGSAGGS [r10_66_TrROS] | 1.25 ± 0.052 kcal/mol | 1.14 ± 0.084 kcal/mol | 0.848 ± 0.078 kcal/mol
SAGGSAGGSAGGPAAGEKVVAVGVNPNGETSVREFTVHPDDPLGEVYTEDGTRWYFYPGTSAGGSAGGSAGG [r7_132_TrMRF] | 0.338 ± 0.23 kcal/mol | 0.342 ± 0.15 kcal/mol | 0.303 ± 0.091 kcal/mol
SAGGSAGGSAGGPAPKIDIEIIGVFKTGNRPILIIRFPDGAVIVIDLDSGEIGVIPPDQISAGGSAGGSAGG [r7_28_TrROS] | 2.24 ± 0.11 kcal/mol | 2.66 ± 0.17 kcal/mol | 2.9 ± 0.19 kcal/mol
SAGGSAGGSAGGPAVPVRTTLPDGRVVYYDPESGLTTIYVPETNETLVRDPATGTVTALSAGGSAGGSAGGS [r10_1057_JUSTAS] | 0.562 ± 0.04 kcal/mol | 0.938 ± 0.036 kcal/mol | 1.26 ± 0.027 kcal/mol
SAGGSAGGSAGGPDPEAYPFRYPDREFVLVRNPDEPDTYTILYPDDKVETVPAEDILPESAGGSAGGSAGGS [r10_556_TrMRF] | -0.0442 ± 0.098 kcal/mol | 0.3 ± 0.06 kcal/mol | 0.473 ± 0.027 kcal/mol
SAGGSAGGSAGGPEAVIEELKKAGYTPKVDPNSSVVTVTYKNPDGTILTKTINVPPSLLSAGGSAGGSAGGS [r10_1173_JUSTAS] | 1.59 ± 0.2 kcal/mol | 1.16 ± 0.26 kcal/mol | -0.269 ± 0.25 kcal/mol
SAGGSAGGSAGGPEIITFRNPGNGVTLMVWRTPNNITVSIYNPDGPQKEIPIPPGEPIFSAGGSAGGSAGGS [r10_976_TrROS] | 0.971 ± 0.36 kcal/mol | 0.875 ± 0.19 kcal/mol | 0.833 ± 0.098 kcal/mol
SAGGSAGGSAGGPEIVSAEVLAVFDDGKLVKVKLRVPTPGKGYRYLEAVFLVKPGEKLLSAGGSAGGSAGGS [r10_1183_TrMRF] | 2.12 ± 0.033 kcal/mol | 2.1 ± 0.033 kcal/mol | 2.05 ± 0.052 kcal/mol
SAGGSAGGSAGGPEKGKWKLVLVTMTIPLPPGASIPIPNGVWIYYTDGKIEIWFLMWVPDSAGGSAGGSAGG [r7_506_TrROS] | 5.07 ± 0.11 kcal/mol | 4.8 ± 0.21 kcal/mol | 3.33 ± 0.15 kcal/mol
SAGGSAGGSAGGPEVNIEVERYRLPNGGYLLVIRTSDGEEIVIEFDSPEEALKAAKEIAKSAGGSAGGSAGG [r11_955_TrMRF] | 2.04 ± 0.056 kcal/mol | 1.93 ± 0.077 kcal/mol | 1.73 ± 0.035 kcal/mol
SAGGSAGGSAGGPEWRWREFTIPGDPEEIKKLFPNFKILSPEPPPNGMRKVTIWIPPEDSAGGSAGGSAGGS [r10_764_TrROS] | 1.54 ± 0.079 kcal/mol | 1.27 ± 0.12 kcal/mol | -0.0853 ± 0.6 kcal/mol
SAGGSAGGSAGGPIITPKIRDALKAAGKDFSEEEIRGIAEGIAAIAIEKGYPDVVITADASAGGSAGGSAGG [r7_512_TrMRF] | 0.938 ± 0.018 kcal/mol | 0.669 ± 0.045 kcal/mol | -0.259 ± 0.06 kcal/mol
SAGGSAGGSAGGPIPGSTIPSVPVKIVNIHPDGTKTEYFNSDIPIDALKEKFPGEIEFESSAGGSAGGSAGG [r17_125_TrMRF] | 0.734 ± 0.029 kcal/mol | 0.703 ± 0.065 kcal/mol | 0.562 ± 0.065 kcal/mol
SAGGSAGGSAGGPKIVRIAGNPETGILIIEFENGEKKVIELKQEEADKLAKENPGVEVLTSAGGSAGGSAGG [r7_175_TrMRF] | 0.433 ± 0.056 kcal/mol | 0.777 ± 0.11 kcal/mol | 1.03 ± 0.059 kcal/mol

Sequence | folding stability dG unfold [1] | folding stability dG unfold [2] | folding stability dG unfold [3]
SAGGSAGGSAGGPKYKIEIEIKKIKVKVEKTVKYDGKTYKEEKEFEVLEIKIKIEPEGESAGGSAGGSAGGS [r10_118_TrROS_Hall] | 4.29 ± 0.21 kcal/mol | 4.05 ± 0.29 kcal/mol | 3.19 ± 0.36 kcal/mol
SAGGSAGGSAGGPNGKPLNLKIEIPKIEKIQRVNGRPVIRIPVRMTFPGKEVKMTIWIPISAGGSAGGSAGG [r7_739_TrROS] | 2.44 ± 0.048 kcal/mol | 2.3 ± 0.095 kcal/mol | 2.13 ± 0.086 kcal/mol
SAGGSAGGSAGGPNLQIMVMQTDNSLTVMIYLPEGWVIVYKITPMKIELEIMPLKDPDDSAGGSAGGSAGGS [r10_1169_TrROS] | 5.17 ± 0.32 kcal/mol | 4.89 ± 0.28 kcal/mol | 3.98 ± 0.32 kcal/mol
SAGGSAGGSAGGPNLRIKLKPYPDGKWKIDEIEVPDNHVTIPMRFGNGGEERKTMPPEQISAGGSAGGSAGG [r7_829_TrROS] | -0.484 ± 0.48 kcal/mol | 0.666 ± 0.29 kcal/mol | 1.42 ± 0.065 kcal/mol
SAGGSAGGSAGGPPDDWILMIEIVTITIEMKYKDGGKEVERKMEILVIEIAIIPPDDLPSAGGSAGGSAGGS [r10_300_TrROS] | 3.59 ± 0.29 kcal/mol | 3.11 ± 0.37 kcal/mol | 2.21 ± 0.2 kcal/mol
SAGGSAGGSAGGPPDEVVTTVTEIELPDDKVVTVTTTTVPGAGTTTTTVTTKPLTKPGVSSAGGSAGGSAGG [r11_695_JUSTAS] | 1.12 ± 0.029 kcal/mol | 1.82 ± 0.047 kcal/mol | 2.5 ± 0.086 kcal/mol
SAGGSAGGSAGGPPILLPKFDGSVKEVLTLPTEDRLLLVAYNPETGKLFVFEIKDPDEFSAGGSAGGSAGGS [r10_772_TrMRF] | 1.65 ± 0.063 kcal/mol | 1.34 ± 0.14 kcal/mol | 0.694 ± 0.044 kcal/mol
SAGGSAGGSAGGPPKPIKVLLYKPEENKLYVLVFPEGVSLEEVKKYVESHPNFKIVSVEGSAGGSAGGSAGG [r7_624_TrMRF] | 3 ± 0.051 kcal/mol | 2.72 ± 0.11 kcal/mol | 2.04 ± 0.087 kcal/mol
SAGGSAGGSAGGPPKWVIFIMIEIRPVTVEVYDPKNGEPLMEKPVWVIKIKIFLFKPGDFSAGGSAGGSAGG [r7_573_TrROS] | 4.82 ± 0.13 kcal/mol | 4.54 ± 0.13 kcal/mol | 3.07 ± 0.081 kcal/mol
SAGGSAGGSAGGPPPGQKVTMWVIRIEIKIKLERTPDGKLKLKIEIKISIVFITIYAPDSAGGSAGGSAGGS [r10_297_TrROS] | 4.87 ± 0.19 kcal/mol | 4.6 ± 0.22 kcal/mol | 3.45 ± 0.13 kcal/mol
SAGGSAGGSAGGPTITSSKIVAEYPGGKVIEVTIEEPLPTPSTVTKTVTLFIPEGSVLLSAGGSAGGSAGGS [r10_1183_JUSTAS] | 0.402 ± 0.15 kcal/mol | 0.361 ± 0.34 kcal/mol | 0.536 ± 0.087 kcal/mol
SAGGSAGGSAGGPTIVIKDVKGLTPEQAEALARDLLKELGLEDADVRLERGEDGDLTFTYSAGGSAGGSAGG [r7_810_TrMRF] | 0.79 ± 0.14 kcal/mol | 1.26 ± 0.11 kcal/mol | 1.68 ± 0.034 kcal/mol
SAGGSAGGSAGGPTVTVKVKLEDGSTATVTYDLDTGELYIEVNGKTYKFPLGSKVEIEEVSAGGSAGGSAGG [r7_434_TrROS_Hall] | 3.56 ± 0.054 kcal/mol | 3.31 ± 0.17 kcal/mol | 2.39 ± 0.28 kcal/mol
SAGGSAGGSAGGPVIEIKVPSKEDALEAARKLLEELFGKKPEDMKITVEYNPEDKTIKIKSAGGSAGGSAGG [r7_387_TrROS_Hall] | 1.28 ± 0.054 kcal/mol | 0.986 ± 0.087 kcal/mol | 0.333 ± 0.063 kcal/mol
SAGGSAGGSAGGPVLVKLSVSKPPGDKVIVTLSFYNPETKEVFTITVPLDFLKNIKPLFSAGGSAGGSAGGS [r10_1077_TrMRF] | 2.87 ± 0.13 kcal/mol | 2.83 ± 0.2 kcal/mol | 2.61 ± 0.11 kcal/mol
SAGGSAGGSAGGPVVEELEEDLVTEYFRDGDDLYKVVFIPGTGKPFEKKIESIPPDEPFSAGGSAGGSAGGS [r10_240_TrMRF] | -0.0602 ± 0.21 kcal/mol | 2.34e-05 ± 0.23 kcal/mol | 0.119 ± 0.088 kcal/mol
SAGGSAGGSAGGPVVIRLKVDMSPEEVEALAKELASLPNVKVEWDEESRVLTVTLSEEDLSAGGSAGGSAGG [r7_219_TrROS_Hall] | 2.98 ± 0.056 kcal/mol | 2.72 ± 0.099 kcal/mol | 2.46 ± 0.09 kcal/mol
SAGGSAGGSAGGPYIRVLRSDGKPIVVPVRADDPELFDRVVAELEAAGYPVVKAEVLRLSAGGSAGGSAGGS [r10_231_TrMRF] | 0.155 ± 0.12 kcal/mol | -0.041 ± 0.093 kcal/mol | -0.818 ± 0.78 kcal/mol
